Columns and labels:
Assay in all cases: Kinase Profiling Assay
Format in all cases: biochemical
Details in all cases: for % activity: 100 μM
PKD2(h) = target: T1, PKD2(h) (Homo sapiens, UniProt Q9BZL6)
T1 sequence (Q9BZL6 1-878): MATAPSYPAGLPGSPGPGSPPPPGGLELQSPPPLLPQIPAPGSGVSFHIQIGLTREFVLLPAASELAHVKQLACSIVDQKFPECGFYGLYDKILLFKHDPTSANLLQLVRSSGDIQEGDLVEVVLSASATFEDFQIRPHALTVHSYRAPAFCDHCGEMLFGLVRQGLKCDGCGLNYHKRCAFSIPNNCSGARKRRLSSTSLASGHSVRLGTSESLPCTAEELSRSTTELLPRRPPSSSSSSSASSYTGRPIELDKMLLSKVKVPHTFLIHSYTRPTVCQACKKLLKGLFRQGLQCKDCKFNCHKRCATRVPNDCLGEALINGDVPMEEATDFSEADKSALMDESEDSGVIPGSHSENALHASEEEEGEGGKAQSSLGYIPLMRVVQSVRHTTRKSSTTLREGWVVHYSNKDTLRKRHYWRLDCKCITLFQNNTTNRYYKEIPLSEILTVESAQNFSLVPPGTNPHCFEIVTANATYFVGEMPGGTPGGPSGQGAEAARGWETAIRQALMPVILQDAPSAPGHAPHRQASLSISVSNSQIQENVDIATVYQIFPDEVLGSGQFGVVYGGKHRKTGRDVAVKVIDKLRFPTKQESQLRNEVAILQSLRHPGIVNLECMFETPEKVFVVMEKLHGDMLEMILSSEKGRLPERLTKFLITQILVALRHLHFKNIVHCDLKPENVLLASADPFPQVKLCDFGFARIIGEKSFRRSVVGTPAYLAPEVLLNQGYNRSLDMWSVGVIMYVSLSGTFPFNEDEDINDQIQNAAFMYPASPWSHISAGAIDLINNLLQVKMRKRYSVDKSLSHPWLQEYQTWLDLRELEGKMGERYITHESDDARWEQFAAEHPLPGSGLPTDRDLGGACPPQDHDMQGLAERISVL

Mer(h) = target: T2, Mer(h) (Homo sapiens, UniProt Q12866)
T2 sequence (Q12866 21-999): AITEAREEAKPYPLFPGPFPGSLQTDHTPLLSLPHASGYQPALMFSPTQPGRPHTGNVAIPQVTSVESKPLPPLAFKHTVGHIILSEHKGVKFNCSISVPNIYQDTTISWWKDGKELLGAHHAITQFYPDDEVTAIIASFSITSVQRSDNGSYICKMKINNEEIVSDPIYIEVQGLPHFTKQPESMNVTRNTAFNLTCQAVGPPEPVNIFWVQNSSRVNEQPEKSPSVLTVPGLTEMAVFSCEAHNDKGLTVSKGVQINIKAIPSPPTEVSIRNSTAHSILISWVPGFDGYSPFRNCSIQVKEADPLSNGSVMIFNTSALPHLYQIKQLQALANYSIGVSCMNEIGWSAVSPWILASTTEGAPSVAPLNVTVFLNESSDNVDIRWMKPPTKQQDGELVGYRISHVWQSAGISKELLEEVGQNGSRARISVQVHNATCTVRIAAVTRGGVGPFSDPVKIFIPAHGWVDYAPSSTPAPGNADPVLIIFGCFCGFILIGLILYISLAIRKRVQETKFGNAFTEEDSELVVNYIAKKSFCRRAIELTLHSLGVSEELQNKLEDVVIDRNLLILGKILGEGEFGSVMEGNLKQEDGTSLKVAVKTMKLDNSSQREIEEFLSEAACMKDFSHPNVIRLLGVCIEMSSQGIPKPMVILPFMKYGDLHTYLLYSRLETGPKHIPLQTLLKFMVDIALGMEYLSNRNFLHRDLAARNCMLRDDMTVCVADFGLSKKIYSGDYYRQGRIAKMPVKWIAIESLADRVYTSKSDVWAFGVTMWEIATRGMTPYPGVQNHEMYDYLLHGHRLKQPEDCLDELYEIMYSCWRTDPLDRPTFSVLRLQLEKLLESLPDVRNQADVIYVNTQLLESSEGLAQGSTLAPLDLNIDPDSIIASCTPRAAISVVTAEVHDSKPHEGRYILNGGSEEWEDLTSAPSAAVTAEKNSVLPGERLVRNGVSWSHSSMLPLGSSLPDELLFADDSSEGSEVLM

EphA8(h) = target: T3, EphA8(h) (Homo sapiens, UniProt P29322)
T3 sequence (P29322 28-1005): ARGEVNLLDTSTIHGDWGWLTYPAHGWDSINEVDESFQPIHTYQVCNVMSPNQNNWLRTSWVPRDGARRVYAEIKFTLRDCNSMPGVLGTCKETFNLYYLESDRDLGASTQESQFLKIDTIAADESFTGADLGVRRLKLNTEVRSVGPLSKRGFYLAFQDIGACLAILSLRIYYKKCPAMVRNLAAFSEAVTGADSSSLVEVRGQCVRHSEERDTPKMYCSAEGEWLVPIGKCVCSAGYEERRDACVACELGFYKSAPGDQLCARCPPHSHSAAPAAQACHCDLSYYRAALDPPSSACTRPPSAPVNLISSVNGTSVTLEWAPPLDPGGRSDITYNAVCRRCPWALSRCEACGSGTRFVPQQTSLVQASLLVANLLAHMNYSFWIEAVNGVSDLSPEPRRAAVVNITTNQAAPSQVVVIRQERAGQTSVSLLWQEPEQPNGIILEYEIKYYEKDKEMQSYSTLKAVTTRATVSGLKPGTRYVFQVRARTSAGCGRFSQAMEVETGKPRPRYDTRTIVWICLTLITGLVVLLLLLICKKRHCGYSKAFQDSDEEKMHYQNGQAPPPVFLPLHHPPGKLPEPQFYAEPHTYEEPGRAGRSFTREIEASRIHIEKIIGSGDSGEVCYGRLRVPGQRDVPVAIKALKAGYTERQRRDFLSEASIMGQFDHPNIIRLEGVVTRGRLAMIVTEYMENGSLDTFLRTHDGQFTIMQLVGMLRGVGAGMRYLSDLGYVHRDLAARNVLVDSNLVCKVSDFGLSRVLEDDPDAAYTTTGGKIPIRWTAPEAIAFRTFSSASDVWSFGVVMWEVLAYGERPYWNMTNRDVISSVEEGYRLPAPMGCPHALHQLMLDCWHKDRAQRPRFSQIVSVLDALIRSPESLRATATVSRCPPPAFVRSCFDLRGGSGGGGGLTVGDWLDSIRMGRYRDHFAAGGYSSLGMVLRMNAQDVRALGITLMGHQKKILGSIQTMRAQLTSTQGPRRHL

EphA4(h) = EphA4(h) (Homo sapiens, UniProt P54764)
EphA4(h), sequence (P54764 20-986): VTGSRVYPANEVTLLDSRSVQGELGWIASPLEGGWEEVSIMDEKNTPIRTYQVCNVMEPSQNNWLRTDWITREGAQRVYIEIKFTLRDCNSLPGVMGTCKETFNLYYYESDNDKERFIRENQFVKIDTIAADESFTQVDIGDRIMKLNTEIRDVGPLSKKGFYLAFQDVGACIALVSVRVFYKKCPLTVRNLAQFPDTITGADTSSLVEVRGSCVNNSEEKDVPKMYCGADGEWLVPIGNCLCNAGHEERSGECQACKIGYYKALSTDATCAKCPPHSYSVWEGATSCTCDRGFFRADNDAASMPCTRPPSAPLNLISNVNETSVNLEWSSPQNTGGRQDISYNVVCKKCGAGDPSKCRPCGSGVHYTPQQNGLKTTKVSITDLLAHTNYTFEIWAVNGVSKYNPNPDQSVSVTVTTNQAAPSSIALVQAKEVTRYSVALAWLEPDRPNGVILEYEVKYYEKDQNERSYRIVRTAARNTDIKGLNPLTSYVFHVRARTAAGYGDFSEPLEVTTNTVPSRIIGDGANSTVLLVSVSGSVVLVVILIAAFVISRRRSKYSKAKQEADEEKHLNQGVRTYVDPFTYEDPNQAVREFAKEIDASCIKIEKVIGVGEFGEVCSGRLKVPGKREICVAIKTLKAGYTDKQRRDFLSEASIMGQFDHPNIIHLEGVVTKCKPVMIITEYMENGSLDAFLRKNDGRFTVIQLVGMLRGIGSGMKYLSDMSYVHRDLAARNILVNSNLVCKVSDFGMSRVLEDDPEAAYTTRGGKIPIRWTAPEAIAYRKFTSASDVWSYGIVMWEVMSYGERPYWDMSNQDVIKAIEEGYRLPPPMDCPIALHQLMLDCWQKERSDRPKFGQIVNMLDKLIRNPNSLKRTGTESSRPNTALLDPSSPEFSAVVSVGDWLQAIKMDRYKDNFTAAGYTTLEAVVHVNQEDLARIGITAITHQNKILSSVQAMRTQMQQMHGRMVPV

Substance	activity at 100 µM (PKD2(h)) [%]	activity at 100 µM (Mer(h)) [%]	activity at 100 µM (EphA8(h)) [%]	activity at 100 µM (EphA4(h)) [%]	% activity (PKD2(h)) [%]	% activity (Mer(h)) [%]	% activity (EphA8(h)) [%]	% activity (EphA4(h)) [%]
H-YARAAARQARAKALARQLGVAA-OH [MMI-0100]	84	47	181	110				
YARAAARQARAKALNRQLGVA (Mammalian) [MMI-0200]					78	90	133	127
HRRIKAWLKKIKALARQLGVAA (Mammalian) [MMI-0500]					10	17	337	48

Source: patent publication US10087225B2, “Formulation of MK2 inhibitor peptides” (MOERAE MATRIX, INC., priority 2015, dated 2018)
